Laboratory results: article PMC11021425, “Salmonella manipulates macrophage migration via SteC-mediated myosin light chain activation to penetrate the gut-vascular barrier” (The EMBO Journal, 2024)

Molecular target: Myl12a, biotinylated (murine) (UniProt Q6ZWQ9)
Assay: BLI

SteC 194 aa–364 aa (domain or fragment)
fold decrease of affinity: 10 fold
